This note sets out measurements from patent CN113234158A (FUZHOU MAIXIN BIOTECHNOLOGY DEV CO LTD, dated 2021).

The assay deals with T1, TIM3蛋白 (T细胞免疫球蛋白黏液素3) (human, UniProt Q8TDQ0 22-301).
T1 construct: whole, on cells; Endogenous TIM3 in paraffin tissue sections (immunohistochemistry); Species 'human' comes from the abstract; also called T cell immunoglobulin and mucin-3
T1 sequence (looked up): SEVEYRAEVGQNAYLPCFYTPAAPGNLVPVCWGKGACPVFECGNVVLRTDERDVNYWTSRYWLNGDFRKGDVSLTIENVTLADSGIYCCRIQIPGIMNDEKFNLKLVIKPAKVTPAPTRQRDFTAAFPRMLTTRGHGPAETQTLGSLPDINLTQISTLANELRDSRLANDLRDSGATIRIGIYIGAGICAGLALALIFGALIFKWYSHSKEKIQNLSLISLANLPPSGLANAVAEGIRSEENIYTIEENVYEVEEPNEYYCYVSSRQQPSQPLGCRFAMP
Briefly: immunohistochemistry on tonsil and appendix tissue chips.

B1: 抗TIM3蛋白单克隆抗体 (小鼠杂交瘤细胞株7H2分泌, CGMCC NO 20763) (antibody, V domains shown)
VH: QVQLQESGGDLVKTGGSLKLSCVASGFTFRRYTMSWVRQTPAKRLEWVATIGSGGGDTYYPDTVKGRFTISRDNARSTLFLQMNSLRSEDTARYYCARSSYYYDVDLYYYSMDYWGQGTSVTVSS
VL: DILMTQTPLSLSASLGDRVTISCRASQDIRNCLNWYQQKPDGTVKLLIYYTSTLQSGVPSRFSGSGSGTDYSLTISNLEAEDIATYTCQQYSKIPRTFGGGTTLEIK
notes: also called TIM3(7H2); 本抗体
In the case of B1, the binding result is reported as “binds”.
